As a reminder, the Kd is the equilibrium constant for the complex coming apart. A low value points to tighter binding.

B1: receiving peptide MK(LKKIKSV)4VGER (peptide)
peptide: MKLKKIKSVLKKIKSVLKKIKSVLKKIKSVVGER
notes: With the docking peptide it is said to form a tetramer of two peptides of each type; also called V/K peptide

For data set [1], the target named is B1. The experiment in a line: isothermal titration calorimetry (FIG. 2C); ITC, docking peptide with receiving peptide (FIG. 2C). On the technique in general: ITC needs no label: the signal is the heat of the interaction.
Data set [2] deals with the molecule itself. The experiment in a line: circular dichroism spectra, 200-260 nm. In general terms: CD spectra are sensitive to the conformation of chiral molecules.

Regarding MKLEEIVSELEEIVSELEEIVTELEEIVSEVGER (also called V/E peptide) [docking peptide MK(LEEIVSE)2LEEIVTELEEIVSEVGER], the Kd in data set [1] was 62 nM. In data set [2], the binding result was “no binding (tested: 100 µM)”. As for B1, the binding result in data set [2] is reported as “no binding (tested: 100 µM)”.
